Measurements as given in IntAct's records for PubMed 28258151.

B1: Complement factor H (Homo sapiens), P08603 (parent)
chain: MRLLAKIICLMLWAICVAEDCNELPPRRNTEILTGSWSDQTYPEGTQAIYKCRPGYRSLGNVIMVCRKGEWVALNPLRKCQKRPCGHPGDTPFGTFTLTGGNVFEYGVKAVYTCNEGYQLLGEINYRECDTDGWTNDIPICEVVKCLPVTAPENGKIVSSAMEPDREYHFGQAVRFVCNSGYKIEGDEEMHCSDDGFWSKEKPKCVEISCKSPDVINGSPISQKIIYKENERFQYKCNMGYEYSERGDAVCTESGWRPLPSCEEKSCDNPYIPNGDYSPLRIKHRTGDEITYQCRNGFYPATRGNTAKCTSTGWIPAPRCTLKPCDYPDIKHGGLYHENMRRPYFPVAVGKYYSYYCDEHFETPSGSYWDHIHCTQDGWSPAVPCLRKCYFPYLENGYNQNYGRKFVQGKSIDVACHPGYALPKAQTTVTCMENGWSPTPRCIRVKTCSKSSIDIENGFISESQYTYALKEKAKYQCKLGYVTADGETSGSITCGKDGWSAQPTCIKSCDIPVFMNARTKNDFTWFKLNDTLDYECHDGYESNTGSTTGSIVCGYNGWSDLPICYERECELPKIDVHLVPDRKKDQYKVGEVLKFSCKPGFTIVGPNSVQCYHFGLSPDLPICKEQVQSCGPPPELLNGNVKEKTKEEYGHSEVVEYYCNPRFLMKGPNKIQCVDGEWTTLPVCIVEESTCGDIPELEHGWAQLSSPPYYYGDSVEFNCSESFTMIGHRSITCIHGVWTQLPQCVAIDKLKKCKSSNLIILEEHLKNKKEFDHNSNIRYRCRGKEGWIHTVCINGRWDPEVNCSMAQIQLCPPPPQIPNSHNMTTTLNYRDGEKVSVLCQENYLIQEGEEITCKDGRWQSIPLCVEKIPCSQPPQIEHGTINSSRSSQESYAHGTKLSYTCEGGFRISEENETTCYMGKWSSPPQCEGLPCKSPPEISHGVVAHMSDSYQYGEEVTYKCFEGFGIDGPAIAKCLGEKWSHPPSCIKTDCLSLPSFENAIPMGEKKDVYKAGEQVTYTCATYYKMDGASNVTCINSRWTGRPTCRDTSCVNPPTVQNAYIVSRQMSKYPSGERVRYQCRSPYEMFGDEEVMCLNGNWTEPPQCKDSTGKCGPPPPIDNGDITSFPLSVYAPASSVEYQCQNLYQLEGNKRITCRNGQWSEPPKCLHPCVISREIMENYNIALRWTAKQKLYSRTGESVEFVCKRGYRLSSRSHTLRTTCWDGKLEYPTCAKR

Variants of: B1
Settings: with sdre_staam sdrE

Variant	effect of a mutation on the interaction
R1206A	disrupting interaction
L1207A	decreasing interaction
S1208A	disrupting interaction
S1209A	decreasing interaction
R1210A	increasing interaction
S1211A	decreasing interaction
H1212A	increasing interaction
T1213A	increasing interaction
L1214A	increasing interaction
R1215A	with no effect
T1216A	increasing interaction
T1217A	with no effect
C1218A	increasing interaction
W1219A	with no effect
D1220A	with no effect
K1222A	with no effect
L1223A	increasing interaction
E1224A	increasing interaction
Y1225A	increasing interaction
P1226A	decreasing interaction
